In patent US20070185028A1, “Compositions and methods for treatment of protein misfolding and protein aggregation diseases” (priority 2004, published 2007):
No end group written: not given here.

What was measured:
[1] = as provided by manufacturer (Mimotopes); cited from earlier work
human γD crystallin = biological target: T1, human γD crystallin (Homo sapiens, UniProt P07320); assay: αB crystallin protein pin array with γD crystallin; assay type: binding; conditions: unheated γD crystallin; similar maxima pre-heated 45° C.
T1 construct: made in house
T1 sequence (P07320 1-174): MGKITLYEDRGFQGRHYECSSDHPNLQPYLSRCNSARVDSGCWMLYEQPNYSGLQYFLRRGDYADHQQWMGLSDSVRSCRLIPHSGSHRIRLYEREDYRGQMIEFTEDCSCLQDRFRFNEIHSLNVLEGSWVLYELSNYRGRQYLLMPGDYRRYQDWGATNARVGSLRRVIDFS
Excerpt: (§1) Synthesis of Pins, binding and detection of peptides binding to ligand proteins. The αB crystallin protein pin array was used to measure the interaction between peptides and chaperone target proteins including bovine βH crystallin, human γD crystallin, equine alcohol dehydrogenase (ADH) and porcine citrate synthase (CS) as described (FIG. 12). Ghosh and Clark, Protein Sci 14: 684-95, 2005.
(§2) Refer to the methods section for detailed protocols. The absorbance corresponding to the blue coloration in each well was measured at λ=450 nm and plotted against the amino acid sequence of the corresponding peptide in that well (FIGS. 13 and 14). Wells containing peptides that have strong interactions with target proteins are dark blue and wells containing peptides that have weak or no interaction with target proteins are light blue or clear.
(§3) The purity of the target proteins used in the pin array assays, bovine βH crystallin, human γD crystallin, equine alcohol dehydrogenase (ADH) and porcine citrate synthase (CS) were determined to be >90% by SDS-PAGE. In addition, primary antibodies for each target protein were specific to that target protein and consequently contaminating proteins that may bind to the peptides will not be detected. Eighty-four sequential and overlapping peptide fragments corresponding to residues 1-175 of human αB crystallin were synthesized employing a simultaneous peptide synthesis strategy developed by Geysen, called Multipin Peptide Synthesis (Mimotopes, San Diego, Calif.). Geysen, Southeast Asian J Trop Med Public Health 21: 523-33, 1990; Chin et al., J Org Chem 62: 538-539, 1997. Peptides were immobilized on derivatized polyethylene pins arranged in a microtiter ELISA plate format. Each peptide was eight amino acids in length and consecutive peptides were offset by two amino acids. All peptides were bound covalently to the surface of the plastic pins. The first peptide was 1MDIAIHHP8 and the last peptide was 168PAVTAAPK175 for human αB crystallin.
(§4) Ghosh and Clark, Protein Sci 14: 684-95, 2005. […] The intensity of the blue color in the wells was measured at 450 nm using an ELISA plate-reader (BioTek, Winooski, Vt.). The intensity of the blue color (plotted on the X-axis) was a measure of the interaction between αB crystallin peptides (plotted on the Y-axis) and target proteins. To measure the effect of temperature on the interactions between interactive peptides and the target proteins, the target proteins were heated in a water-bath at 45° C. for fifteen minutes prior to use. Pin arrays are unable to differentiate between monomers, dimers or oligomers of target proteins that exist in solution. Instead, pin arrays are very sensitive detectors of interactions between individual peptides and the entire population (monomers, dimers or oligomers) of specific target proteins that may exist in solution under specific conditions. Each target protein was assayed two to five times. A single pin array was used for all experiments and no change in interactions was observed after more than thirty repetitions. The last three peptides of the protein pin array, 163REEKPAVT170, 165EKPAVTAA172, 167PAVTAAPK174, correspond to the epitope (163REEKPAVTAAPKK175) recognized by the primary antibody for human αB crystallin. A positive reaction is observed for these three peptides in the absence of human αB crystallin as the ligand due to direct binding of the anti-human αB crystallin antibody to these three peptides. The loss of efficiency for the pin array was measured using this assay. The loss of efficiency for the pin array was determined to be <5% by after more than 30 assays.
When βH crystallin was replaced with γD crystallin, a native protein constituent of lens cytoplasm from the same gene family as the β crystallins, as the ligand in the pin array, twelve interactive sequences were identified (FIG. 14: striped bars). […]

beta amyloid = beta amyloid (Homo sapiens, UniProt P05067); assay: αB crystallin protein pin array, binding of beta amyloid; conditions: immobilized 8-mer peptide; absorption at 450 nm
Excerpt: αB Crystallin peptides that bind the target protein beta-amyloid were identified by screening an αB crystallin protein pin array, which provides a systematic method for evaluating interactions between peptides corresponding to residues 1-175 of human αB crystallin and selected target proteins in a parallel and simultaneous manner.
Peptides were synthesized on derivatized polyethylene pins arranged in a microtiter plate format. Each peptide was 8 amino acids in length and consecutive peptides were offset by 2 amino acids. All peptides were covalently bonded to the surface plastic pins. The first immobilized peptide was 1MDIAIHHP8 and the last peptide was 168PAVTAAPK175 for the human αB crystallin.
After synthesis, the pins were pre-coated at room temperature with 2% Bovine Serum Albumin (BSA), 0.1% Tween-20 and 0.1% Sodium azide in 10 mM phosphate buffered saline pH 7.2 (PBS) for 1 hr, and washed three times for 10 mins each with 10 mM PBS. To screen for binding to the peptides, fixed concentrations of the target protein beta amyloid was dissolved in 10 mM PBS, containing 0.05% Tween-20, added to each well and incubated for 1 hr at room temperature. The pin array was washed three times for 10 mins each with 10 mM PBS, containing 0.05% Tween-20. Monoclonal or polyclonal primary antibodies for the target protein beta amyloid was diluted into PBS buffer, added to each well and incubated for 1 hr at room temperature. Subsequently, the pin array was washed three times for 10 mins each with 10 mM PBS containing 0.05% Tween-20. Anti-rabbit horse-radish peroxidase conjugate secondary antibodies was diluted into PBS buffer, added to each well and incubated for 1 hr at room temperature. The pin array was washed three times for 10 mins each with 10 mM PBS containing 0.05% Tween-20. A chromogenic substrate of horse-radish peroxidase 3,3′,5,5′-Tetramethylbenzidine (TMB) (Pharmingen, San Diego, Calif.) which is colorless was added, and the reaction was carried out for 45 min.
The reaction was stopped by adding 6N sulfuric acid, which changes the color from blue to yellow. The absorption at 450 nm was measured by an ELISA reader (BioTek, Winooski, Vt.).
The pin array was regenerated by sonication in a water bath (VWR Aquasonic, West Chester, Pa.) with 100 mM PBS, containing 1% Sodium dodecyl sulfate (SDS) and 0.1% 2-Mercaptoethanol@60° C. for 10 mins. Next, the pin array was rinsed three times in deionized water, preheated to 60° C. for 30 secs each time, and shaken in water preheated at 60° C. for 30 min. The pin array was then washed with methanol at 60° C. for 15 secs and air-dried and stored @−20° C. for future use. Each target protein was assayed 2-5 times against the human αB crystallin protein pin array peptides to verify the reproducibility of the results. Peptides numbered 5, 7, 8, 9, 13, 19, 22, 23, 24, 27, 35, 38, 45, 51, 52, 56, 57, 61, 66, 71, 72, and 79 in Table 2 reproducibly tested positive in the protein pin assay.

bovine βH crystallin = assay: αB crystallin protein pin array with βH crystallin; assay type: binding; conditions: unheated βH crystallin, 23° C.; similar maxima pre-heated 45° C.
Excerpt: as §1, §2, §3, §4
Protein pin arrays enabled the identification of interactive sequences necessary for the chaperone activity of human αB crystallin. Interactions between immobilized 8-mer human αB crystallin peptides and unheated and pre-heated βH crystallin, a natural protein constitute of lens cells, were measured as absorbances at λ=450 nm at 23° C. […]

Row | Sequence | Hydrophobicity [1] | other results
1 | APSWFDTG [Peptide 29] | 0.56 | 
2 | DEHGFISR [Peptide 55] | 0.16 | 
3 | DPLTITSS [Peptide 65] | 0.49 | 
4 | DQFFGEHL [Peptide 13] | 0.47 | absorbance at 450 nm, interaction with γD crystallin (human γD crystallin): maximum absorbances; binding of beta amyloid in the protein pin assay (beta amyloid): positive
5 | DRFSVNLD [Peptide 37] | 0.19 | 
6 | DVDPLTIT [Peptide 64] | 0.55 | 
7 | EELKVKVL [Peptide 44] | 0.32 | 
8 | EERQDEHG [Peptide 53] | −0.47 | 
9 | EFHRKYRI [Peptide 59] | 0.13 | absorbance at 450 nm, interaction with γD crystallin (human γD crystallin): maximum absorbances
10 | EKDRFSVN [Peptide 36] | −0.13 | 
11 | EKPAVTAA [Peptide 83] | 0.19 | 
12 | EMRLEKDR [Peptide 34] | −0.27 | 
13 | EVHGKHEE [Peptide 50] | −0.18 | 
14 | FDTGLSEM [Peptide 31] | 0.44 | 
15 | FHSPSRLF [Peptide 9] | 0.63 | binding of beta amyloid in the protein pin assay (beta amyloid): positive
16 | GDVIEVHG [Peptide 48] | 0.37 | 
17 | GEHLLESD [Peptide 15] | 0.18 | 
18 | GPRKQVSG [Peptide 74] | −0.04 | 
19 | HESPEELK [Peptide 42] | 0.25 | 
20 | HGFISREF [Peptide 56] | 0.48 | absorbance at 450 nm, interaction with γD crystallin (human γD crystallin): maximum absorbances; binding of beta amyloid in the protein pin assay (beta amyloid): positive
21 | HGKHEERQ [Peptide 51] | −0.41 | binding of beta amyloid in the protein pin assay (beta amyloid): positive
22 | HLLESDLF [Peptide 16] | 0.7 | 

Row | Sequence | Hydrophobicity [1] | other results
23 | HPWIRRPF [Peptide 4] | 0.67 | 
24 | HRKYRIPA [Peptide 60] | 0.11 | 
25 | IAIHHPWI [Peptide 2] | 1.12 | absorbance at 450 nm, interaction with γD crystallin (human γD crystallin): maximum absorbances
26 | IHHPWIRR [Peptide 3] | 0.6 | 
27 | IPITREEK [Peptide 80] | 0.16 | 
28 | ITREEKPA [Peptide 81] | −0.02 | 
29 | ITSSLSSD [Peptide 67] | 0.35 | 
30 | KHEERQDE [Peptide 52] | −0.6 | binding of beta amyloid in the protein pin assay (beta amyloid): positive
31 | KYRIPADV [Peptide 61] | 0.28 | absorbance at 450 nm, interaction with βH crystallin (bovine βH crystallin): Maximum absorbances; binding of beta amyloid in the protein pin assay (beta amyloid): positive
32 | LDVKHFSP [Peptide 40] | 0.47 | 
33 | LESDLFPT (also: covalently bound to polyethylene pin) [Peptide 17] | 0.59 | 
34 | LFDQFFGE [Peptide 12] | 0.68 | 
35 | LKVKVLGD [Peptide 45] | 0.39 | absorbance at 450 nm, interaction with βH crystallin (bovine βH crystallin): Maximum absorbances; binding of beta amyloid in the protein pin assay (beta amyloid): positive
36 | LSEMRLEK [Peptide 33] | 0.16 | 
37 | LSSDGVLT [Peptide 69] | 0.5 | 
38 | MDIAIHHP [Peptide 1] | 0.67 | 
39 | PADVDPLT [Peptide 63] | 0.42 | 
40 | PAVTAAPK [Peptide 84] | 0.36 | 
41 | PERTIPIT [Peptide 78] | 0.49 | 
42 | PPSFLRAP [Peptide 26] | 0.61 | absorbance at 450 nm, interaction with βH crystallin (bovine βH crystallin): Maximum absorbances
43 | PTSTSLSP [Peptide 20] | 0.44 | 
44 | QVSGPERT [Peptide 76] | 0.04 | 

Row | Sequence | Hydrophobicity [1] | other results
45 | REEKPAVT [Peptide 82] | −0.1 | 
46 | RIPADVDP [Peptide 62] | 0.28 | 
47 | RKQVSGPE [Peptide 75] | −0.12 | 
48 | RQDEHGFI [Peptide 54] | 0.14 | 
49 | RRPFFPFH [Peptide 6] | 0.62 | 
50 | SDGVLTVN [Peptide 70] | 0.37 | 
51 | SDLFPTST [Peptide 18] | 0.49 | 
52 | SGPERTIP [Peptide 77] | 0.23 | 
53 | SPEELKVK [Peptide 43] | 0.04 | 
54 | SPFYLRPP [Peptide 23] | 0.7 | absorbance at 450 nm, interaction with βH crystallin (bovine βH crystallin): Maximum absorbances; binding of beta amyloid in the protein pin assay (beta amyloid): positive
55 | SPSRLFDQ [Peptide 10] | 0.27 | 
56 | SRLFDQFF [Peptide 11] | 0.63 | 
57 | SSLSSDGV [Peptide 68] | 0.25 | 
58 | STSLSPFY [Peptide 21] | 0.66 | 
59 | SWFDTGLS [Peptide 30] | 0.64 | 
60 | TGLSEMRL [Peptide 32] | 0.4 | 
61 | VIEVHGKH [Peptide 49] | 0.36 | 
62 | VKHFSPEE [Peptide 41] | 0.19 | 
63 | VKVLGDVI [Peptide 46] | 0.68 | 
64 | VLGDVIEV [Peptide 47] | 0.72 | 
65 | VNGPRKQV [Peptide 73] | 0.04 | 
66 | VNLDVKHF [Peptide 39] | 0.46 | 
